Consider three molecules from PMC10805922, “Exosomal secreted SCIMP regulates communication between macrophages and neutrophils in pneumonia” (Nature Communications, 2024).

Where no end group is shown, it is not given here.

The target in assay [1] is T1, human formyl peptide receptor 1 (FPR1) (human, UniProt P21462 1-350).
T1 construct: formyl peptide receptor 1, human, overexpressed in HEK293 cells; also called FPR1-HEK293; source: HEK293, transiently overexpressed
T1 sequence (looked up): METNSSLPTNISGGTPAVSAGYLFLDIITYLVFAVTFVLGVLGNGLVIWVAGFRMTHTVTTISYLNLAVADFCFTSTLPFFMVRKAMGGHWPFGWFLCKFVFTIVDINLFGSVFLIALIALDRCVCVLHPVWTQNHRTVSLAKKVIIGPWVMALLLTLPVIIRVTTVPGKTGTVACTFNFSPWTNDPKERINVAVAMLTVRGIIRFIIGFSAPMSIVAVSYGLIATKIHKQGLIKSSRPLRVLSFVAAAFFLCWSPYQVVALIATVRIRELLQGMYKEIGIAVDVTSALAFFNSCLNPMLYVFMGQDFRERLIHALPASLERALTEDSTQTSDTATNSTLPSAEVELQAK
The assay can be described thus: other fluorescence titration; competitive binding assay; labelled SCIMP^N mixed with serially diluted fMLF (5-1280 nM) and a fixed amount of FPR-containing HEK293 membrane debris, fluorescence at 512 nm measured for 4 min.

Assay [2] deals with T2, human formyl peptide receptor 2 (FPR2) (human, UniProt P25090 1-351).
T2 construct: formyl peptide receptor 2, human, overexpressed in HEK293 cells; also called FPR2-HEK293; source: HEK293, transiently overexpressed
T2 sequence (looked up): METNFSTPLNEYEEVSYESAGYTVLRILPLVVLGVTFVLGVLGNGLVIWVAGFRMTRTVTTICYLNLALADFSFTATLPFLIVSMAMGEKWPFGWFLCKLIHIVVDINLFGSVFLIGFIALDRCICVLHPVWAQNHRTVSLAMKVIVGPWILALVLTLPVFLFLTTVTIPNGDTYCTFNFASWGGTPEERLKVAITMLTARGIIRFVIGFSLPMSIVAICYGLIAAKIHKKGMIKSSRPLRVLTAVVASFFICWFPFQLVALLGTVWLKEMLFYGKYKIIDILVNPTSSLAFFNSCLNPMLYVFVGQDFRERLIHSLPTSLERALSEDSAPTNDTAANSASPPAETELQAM
Described as above.

Assay [3] addresses T3, murine FPR1 (murine, UniProt P33766 1-364).
T3 construct: formyl peptide receptor 1, mouse, overexpressed in HEK293 cells; also called murine formyl peptide receptor 1; source: HEK293 overexpressing FPRs, membrane debris
T3 sequence (looked up): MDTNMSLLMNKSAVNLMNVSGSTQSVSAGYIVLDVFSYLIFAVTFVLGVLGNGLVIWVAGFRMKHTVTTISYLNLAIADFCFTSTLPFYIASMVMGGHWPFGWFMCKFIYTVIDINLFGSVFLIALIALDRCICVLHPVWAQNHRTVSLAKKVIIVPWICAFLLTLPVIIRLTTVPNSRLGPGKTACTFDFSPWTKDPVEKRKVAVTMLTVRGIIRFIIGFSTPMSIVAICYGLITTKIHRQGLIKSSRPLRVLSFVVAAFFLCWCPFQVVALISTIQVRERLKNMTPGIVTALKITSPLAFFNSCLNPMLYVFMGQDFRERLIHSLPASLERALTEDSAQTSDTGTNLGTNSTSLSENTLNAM
Described as above.

Assay [4] has as its target T4, murine FPR2 (murine, UniProt O88536 1-351).
T4 construct: formyl peptide receptor 2, mouse, overexpressed in HEK293 cells; also called murine formyl peptide receptor 2; source: HEK293 overexpressing FPRs, membrane debris
T4 sequence (looked up): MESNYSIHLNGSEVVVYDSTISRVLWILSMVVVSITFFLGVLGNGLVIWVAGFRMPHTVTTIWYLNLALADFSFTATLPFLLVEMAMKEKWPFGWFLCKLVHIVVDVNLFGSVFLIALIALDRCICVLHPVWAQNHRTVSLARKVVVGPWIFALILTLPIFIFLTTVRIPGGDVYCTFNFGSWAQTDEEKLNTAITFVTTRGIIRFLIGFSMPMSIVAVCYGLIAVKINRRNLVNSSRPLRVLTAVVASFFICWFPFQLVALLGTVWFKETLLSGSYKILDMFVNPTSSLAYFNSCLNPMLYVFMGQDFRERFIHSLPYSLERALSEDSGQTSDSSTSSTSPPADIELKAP
The description is as above.

Assay [5] addresses T3, murine FPR1. Nature of the assay: other fluorescence titration; saturation binding assay; BODIPY FL iodoacetamide-labelled SCIMP^N with membrane component (debris) of HEK293 cells overexpressing FPRs, black/clear bottom 96-well plate, quenching of the label on binding, excited at 370 nm, detected at 512 nm, measured for 4 min. The settings on record: one partner purified.
The target in assay [6] is T4, murine FPR2. Described as above. The settings on record: one partner purified.
Assay [7] has as its target T1, human formyl peptide receptor 1 (FPR1). Described as above. The settings on record: one partner purified.
The target of assay [8] is T2, human formyl peptide receptor 2 (FPR2). Described as above. The conditions noted are these: one partner purified.

For orientation: IC50 means the concentration that gives 50% inhibition. A high value points to a need for much substance. Take N-Formyl-Met-Leu-Phe (fMLF) (peptide): the half-maximal inhibitory concentration (IC50) is 55.2 nM in assay [1], 38.4 nM in assay [2], 148 nM with murine FPR1 [3] and 43.1 nM in the assay with murine FPR2 [4].

B1: murine SCIMP N-terminus peptide (murine SCIMP^N) (peptide)
peptide: MSWWRDNF
modifications: also: labeled with BODIPY FL iodoacetamide, site not given here
notes: N-terminus peptide; source: synthetic peptide (chemically synthesized and purified; Chinese-Peptide-Company.Inc), purity more than 95%
By Kd is commonly meant the constant that tells how readily two partners part at equilibrium. Read a low Kd as higher affinity. In the case of B1, the Kd came out at 1.08 nM with murine FPR1 [5] and 0.54 nM in the assay with murine FPR2 [6].

B2: human SCIMP N-terminus peptide (SCIMP^N, 18aa) (peptide)
peptide: MDTFTVQDSTAMSWWRNN
modifications: also: labeled with BODIPY FL iodoacetamide, site not given here
notes: the 18 amino acids before the transmembrane domain at the N-terminus (extramembrane fragment); also called SCIMP N-terminal peptides; source: synthetic peptide (Chinese-Peptide-Company.Inc), purity more than 95%
Regarding B2, the Kd was 3.8 nM in assay [7] and 3.5 nM in assay [8].
